Usually EC50 stands for the concentration that produces a half-maximal response. Read a low EC50 as a more potent agent. Broadly, the Kd is the concentration at which binding is half-saturated. Usually koff stands for a measure of how fast the partners let go of each other. What is called kon is the rate constant with which the complex forms.

Test [1] has as its target T1, human CD137 on cells (human, UniProt Q07011 24-255). The experiment in a line: cell-based or functional assay.
Test [2] addresses T1, human CD137 on cells. The test is described as follows: flow cytometry, CHO-K1/human CD137 cells, PE anti-human IgG Fc secondary, MFI (mean). How it is done: Binding studies on CHO-K1 cells lines expressing CD137 were performed by standard flow cytometry-based staining procedures. CHO-K1 cells (generated by Alligator) were transfected with human or cynomolgus macaque CD137. A typical experiment would label approximately 100,000 cells per well, in 96-well plates, with a range of 100 nM to 0.05 nM binding molecule in 50 μL of saline buffer with 2% BSA and 2 mM EDTA, for 30 min on ice, followed by washes and incubation with PE-labeled secondary antibody, goat anti-human IgG Fcγ ([…]), for 20 minutes on ice. Signal from bound molecules was detected using a LSR-II™ or a Symphony A3 flow cytometer (BD Biosciences) and analyzed by FlowJo flow cytometry analysis software. […] Nonlinear regression analysis to determine EC₅₀ values was performed in GraphPad Prism 6® graphing and statistics software.
(In general: In flow cytometry, cells or beads pass a laser one at a time.)

The target in test [3] is T2, recombinant human 5T4 extracellular domain (ECD) (human).
T2 construct: Monomeric, made in HEK-293; also called Hu 5T4; monomeric 5T4 ectodomain
T2 chain: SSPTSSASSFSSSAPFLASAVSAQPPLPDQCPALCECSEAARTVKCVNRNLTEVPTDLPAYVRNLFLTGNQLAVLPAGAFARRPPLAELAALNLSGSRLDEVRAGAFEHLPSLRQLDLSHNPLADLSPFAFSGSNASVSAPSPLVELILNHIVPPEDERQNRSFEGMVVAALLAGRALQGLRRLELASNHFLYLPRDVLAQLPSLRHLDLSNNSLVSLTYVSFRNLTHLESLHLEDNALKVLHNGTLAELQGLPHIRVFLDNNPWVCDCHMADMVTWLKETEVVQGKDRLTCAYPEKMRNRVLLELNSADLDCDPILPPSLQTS
The test is described as follows: SPR (Biacore T200, 25 C), bispecific captured on anti-human IgG, monomeric ECD injected, 1:1 fit. How it is done: (§1) Goat anti-human IgG F(ab′)2 fragment (Jackson ImmunoResearch) at 20 μg/mL in 10 mM sodium acetate (pH 4.5) was immobilized at a density of 2000 response units (RU) onto the flow cell of a CM5 research-grade sensor chip (GE) by standard amine coupling chemistry. Each bispecific variant at 200 nM in HBS-EP+ buffer was captured in the flow cell with the immobilized anti-human IgG at a flow rate of 50 μL/min for 60 sec to reach ˜500 RU response, leaving one flow cell surface unmodified as the reference. Following a 30 sec stabilization period, four different concentrations of each ECD (0, 20, 60, and 180 nM) were injected at 50 μL/min for either 120 sec followed by a 240 sec dissociation period (for 5T4) or 90 sec followed by a 180 sec dissociation period (for 4-1BB). Regeneration was achieved by duplicate injections of 10 mM glycine (pH 1.5) at a flow rate of 50 μL/min for 30 sec followed by HBS-EP+ buffer stabilization for 1 min.
(§2) Sensorgrams obtained from kinetic SPR measurements were analyzed by the double subtraction method. The signal from the reference flow cell was subtracted from the analyte binding response obtained from flow cells with immobilized or captured ligands. Buffer reference responses were then averaged from multiple injections. The averaged buffer reference responses were then subtracted from analyte binding responses, and the final double-referenced data were analyzed with Biacore T200 Evaluation software (2.0, GE), globally fitting data to derive kinetic parameters. All sensorgrams were fitted using a simple one-to-one binding model.

Test [4] addresses T3, recombinant human CD137 extracellular domain (ECD) (human).
T3 construct: Monomeric, made in HEK-293; also called Hu CD137; human 4-1BB ECD
The test is described as above. The method, then: as §1, §2

The target of another test is T4, human 5T4 on cells (human, UniProt Q13641 32-420).
T4 construct: also called TPBG; hu5T4
T4 sequence: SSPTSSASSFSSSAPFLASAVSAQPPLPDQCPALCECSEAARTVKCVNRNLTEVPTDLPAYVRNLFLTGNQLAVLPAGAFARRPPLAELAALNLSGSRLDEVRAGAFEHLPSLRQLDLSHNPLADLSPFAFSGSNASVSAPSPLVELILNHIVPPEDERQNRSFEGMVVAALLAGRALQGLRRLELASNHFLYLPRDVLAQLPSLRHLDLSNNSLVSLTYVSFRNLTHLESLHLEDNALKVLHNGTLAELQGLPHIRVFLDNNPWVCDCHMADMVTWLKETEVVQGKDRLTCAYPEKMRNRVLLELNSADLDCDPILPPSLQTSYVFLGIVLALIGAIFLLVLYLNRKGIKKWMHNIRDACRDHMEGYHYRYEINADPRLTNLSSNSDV
The test is described as follows: flow cytometry, murine CT26 cells expressing human 5T4, labelled anti-human IgG secondary, MFI (mean).

T3 sequence (chain, as listed by the source limits assumed): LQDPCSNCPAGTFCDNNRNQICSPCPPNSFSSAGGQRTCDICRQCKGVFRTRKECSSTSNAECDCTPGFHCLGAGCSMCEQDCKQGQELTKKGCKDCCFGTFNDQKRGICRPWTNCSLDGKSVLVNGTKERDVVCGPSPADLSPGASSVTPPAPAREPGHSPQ
T1 sequence (Q07011 24-255 limits assumed): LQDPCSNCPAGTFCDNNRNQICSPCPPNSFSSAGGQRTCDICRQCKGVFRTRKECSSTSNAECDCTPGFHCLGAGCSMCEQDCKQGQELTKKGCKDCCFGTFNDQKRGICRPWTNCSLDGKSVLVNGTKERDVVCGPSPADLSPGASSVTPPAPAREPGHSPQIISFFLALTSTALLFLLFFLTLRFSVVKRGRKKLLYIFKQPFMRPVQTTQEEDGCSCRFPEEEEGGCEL

B1: ALG.APV-187 (bispecific antibody)
chain: EVQLLESGGGLVQPGGSLRLSCAASGFTFSHGSMYWVRQAPGKGLEWVSSISSGSGSTYYADSVKGRFTISHDNSKNTLYLQMNSLRAEDTAVYYCARSSYYGSYYSIDYWGQGTLVTVSSGGGGSGGGGSGGGGSGGGGSDIQMTQSPSSLSASVGDRVTITCRASQSISSYLNWYQQKPGKAPKLLIYAASSLQSGVPSRFSGSGSGTDFTLTISSLQPEDFATYYCQQYYDNLPTFGQGTKLEIKSSEPKSSDKTHTCPPCPAPEAAGAPSVFLFPPKPKDTLMISRTPEVTCVVVDVSHEDPEVKFNWYVDGVEVHNAKTKPREEQYNSTYRVVSVLTVLHQDWLNGKEYKCAVSNKALPAPIEKTISKAKGQPREPQVYTLPPSRDELTKNQVSLTCLVKGFYPSDIAVEWESNGQPENNYKTTPPVLDSDGSFFLYSKLTVDKSRWQQGNVFSCSVMHEALHNHYTQKSLSLSPGSGGGGSGGGGSGGGGSPSEVQLLESGGGLVQPGGSLRLSCAASGFTFSSYAMSWVRQAPGKCLEWVSAISGSGGSTYYADSVKGRFTISRDNSKNTLYLQMNSLRAEDTAVYYCARYYGGYYSAWMDYWGQGTLVTVSSGGGGSGGGGSGGGGSGGGGSDIQMTQSPSSLSASVGDRVTITCRASQSISSFLNWYQQKPGKAPKLLIYAASSLQSGVPSRFSGSGSGTDFTLTISSLQPEDSATYYCQQTYGYLHTFGCGTKLEIKR
notes: Optimized ADAPTIR scFv-Fc-scFv homodimer with stabilizing disulfide in the 1210 scFv
For B1, in the test with human CD137 on cells [1], the “CD137 reporter assay with HCC1143 cells, EC50 against ALG.APV-004” value turned out to be 10 fold lower EC50; the “CD137 reporter assay with HCC1143 cells, EC50 against ALG.APV-006 and ALG.APV-004” value is no more than 6 fold lower EC50. Also, in the test with human CD137 on cells [2], it took 0.41 nM to reach a half-maximal effect (EC50) and the “Maximum MFI” value was found to be 8720. In addition, in test [3], the dissociation constant Kd was found to be 35 nM, the koff was determined as 0.00072 s⁻¹ and the kon worked out at 21000 M⁻¹ s⁻¹. Moreover, in test [4], the Kd stood at 73 nM, the koff worked out at 0.027 s⁻¹ and the kon turned out to be 370000 M⁻¹ s⁻¹. For the same molecule, in the test with human 5T4 on cells, the EC50 was found to be 2.2 nM and the “Maximum MFI” value was determined as 1730.

B2: ALG.APV-210 (bispecific antibody)
chain: EVQLLESGGGLVQPGGSLRLSCAASGFTFSHGSMYWVRQAPGKGLEWVSSISSGSGSTYYADSVKGRFTISHDNSKNTLYLQMNSLRAEDTAVYYCARSSYYGSYYSIDYWGQGTLVTVSSGGGGSGGGGSGGGGSGGGGSDIQMTQSPSSLSASVGDRVTITCRASQSISSYLNWYQQKPGKAPKLLIYAASSLQSGVPSRFSGSGSGTDFTLTISSLQPEDFATYYCQQYYDNLPTFGQGTKLEIKEPKSSDKTHTCPPCPAPEAAGAPSVFLFPPKPKDTLMISRTPEVTCVVVDVSHEDPEVKFNWYVDGVEVHNAKTKPREEQYNSTYRVVSVLTVLHQDWLNGKEYKCAVSNKALPAPIEKTISKAKGQPREPQVYTLPPSRDELTKNQVSLTCLVKGFYPSDIAVEWESNGQPENNYKTTPPVLDSDGSFFLYSKLTVDKSRWQQGNVFSCSVMHEALHNHYTQKSLSLSPGSGGGGSGGGGSGGGGSPSEVQLLESGGGLVQPGGSLRLSCAASGFTFSSYAMSWVRQAPGKCLEWVSAISGSGGSTYYADSVKGRFTISRDNSKNTLYLQMNSLRAEDTAVYYCARYYGGYYSAWMDYWGQGTLVTVSSGGGGSGGGGSGGGGSGGGGSDIQMTQSPSSLSASVGDRVTITCRASQSISSFLNWYQQKPGKAPKLLIYAASSLQSGVPSRFSGSGSGTDFTLTISSLQPEDSATYYCQQTYGYLHTFGCGTKLEIKR
notes: Optimized ADAPTIR scFv-Fc-scFv homodimer with stabilizing disulfide in the 1210 scFv; also called 5T4-CD137 bispecific antibody
As to B2, the “CD137 reporter assay with HCC1143 cells, EC50 against ALG.APV-004” value with human CD137 on cells [1] stood at 10 fold lower EC50. Also, in the test with human CD137 on cells [2], the EC50 came out at 0.56 nM and the “Maximum MFI” value is 8970. In test [3], the Kd turned out to be 79 nM, the koff was 0.0012 s⁻¹ and the kon stood at 15000 M⁻¹ s⁻¹. In test [4], the Kd came to 59 nM, the koff came out at 0.033 s⁻¹ and the kon was 550000 M⁻¹ s⁻¹. For the same molecule, in the test with human 5T4 on cells, the EC50 was 2.7 nM and the “Maximum MFI” value amounted to 1730.

The record behind these values is patent US20190016816A1 (APTEVO RESEARCH AND DEVELOPMENT, published 2019).
